Assay [1] addresses T1, GST-LLGL2, unphosphorylated (No-P) (UniProt Q6P1M3 1-1020).
T1 sequence (looked up): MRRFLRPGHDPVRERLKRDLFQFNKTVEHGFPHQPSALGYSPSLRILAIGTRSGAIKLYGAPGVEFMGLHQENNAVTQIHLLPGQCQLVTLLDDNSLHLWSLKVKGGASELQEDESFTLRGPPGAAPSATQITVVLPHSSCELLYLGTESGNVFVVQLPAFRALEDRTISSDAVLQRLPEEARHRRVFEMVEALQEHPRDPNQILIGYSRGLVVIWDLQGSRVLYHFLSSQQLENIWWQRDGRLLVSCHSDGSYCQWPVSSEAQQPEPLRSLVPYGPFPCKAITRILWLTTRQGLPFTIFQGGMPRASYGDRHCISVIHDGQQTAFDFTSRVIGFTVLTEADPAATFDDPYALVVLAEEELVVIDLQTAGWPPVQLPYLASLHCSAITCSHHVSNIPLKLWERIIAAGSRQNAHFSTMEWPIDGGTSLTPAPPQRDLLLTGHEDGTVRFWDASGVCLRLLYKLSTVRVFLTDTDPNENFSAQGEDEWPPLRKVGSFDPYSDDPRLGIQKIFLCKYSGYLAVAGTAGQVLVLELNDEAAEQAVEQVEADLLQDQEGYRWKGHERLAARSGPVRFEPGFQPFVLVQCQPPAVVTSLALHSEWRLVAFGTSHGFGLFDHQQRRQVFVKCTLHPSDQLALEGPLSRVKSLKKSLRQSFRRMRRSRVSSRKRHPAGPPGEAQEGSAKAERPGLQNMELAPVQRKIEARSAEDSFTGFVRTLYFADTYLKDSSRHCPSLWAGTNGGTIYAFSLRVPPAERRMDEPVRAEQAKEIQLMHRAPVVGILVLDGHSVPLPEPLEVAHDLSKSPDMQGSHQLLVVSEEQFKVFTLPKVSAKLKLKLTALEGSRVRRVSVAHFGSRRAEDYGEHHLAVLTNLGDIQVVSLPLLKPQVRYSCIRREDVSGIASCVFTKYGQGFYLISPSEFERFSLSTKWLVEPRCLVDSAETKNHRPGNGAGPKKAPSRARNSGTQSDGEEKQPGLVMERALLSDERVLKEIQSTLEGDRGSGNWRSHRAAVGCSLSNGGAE
Description: pull-down.

Assay [2] has as its target T2, GST-LLGL2 phosphorylated at Tyr499 (P-LLGL2) (UniProt Q6P1M3 1-1020, phosphotyrosine at Tyr499).
T2 sequence (looked up): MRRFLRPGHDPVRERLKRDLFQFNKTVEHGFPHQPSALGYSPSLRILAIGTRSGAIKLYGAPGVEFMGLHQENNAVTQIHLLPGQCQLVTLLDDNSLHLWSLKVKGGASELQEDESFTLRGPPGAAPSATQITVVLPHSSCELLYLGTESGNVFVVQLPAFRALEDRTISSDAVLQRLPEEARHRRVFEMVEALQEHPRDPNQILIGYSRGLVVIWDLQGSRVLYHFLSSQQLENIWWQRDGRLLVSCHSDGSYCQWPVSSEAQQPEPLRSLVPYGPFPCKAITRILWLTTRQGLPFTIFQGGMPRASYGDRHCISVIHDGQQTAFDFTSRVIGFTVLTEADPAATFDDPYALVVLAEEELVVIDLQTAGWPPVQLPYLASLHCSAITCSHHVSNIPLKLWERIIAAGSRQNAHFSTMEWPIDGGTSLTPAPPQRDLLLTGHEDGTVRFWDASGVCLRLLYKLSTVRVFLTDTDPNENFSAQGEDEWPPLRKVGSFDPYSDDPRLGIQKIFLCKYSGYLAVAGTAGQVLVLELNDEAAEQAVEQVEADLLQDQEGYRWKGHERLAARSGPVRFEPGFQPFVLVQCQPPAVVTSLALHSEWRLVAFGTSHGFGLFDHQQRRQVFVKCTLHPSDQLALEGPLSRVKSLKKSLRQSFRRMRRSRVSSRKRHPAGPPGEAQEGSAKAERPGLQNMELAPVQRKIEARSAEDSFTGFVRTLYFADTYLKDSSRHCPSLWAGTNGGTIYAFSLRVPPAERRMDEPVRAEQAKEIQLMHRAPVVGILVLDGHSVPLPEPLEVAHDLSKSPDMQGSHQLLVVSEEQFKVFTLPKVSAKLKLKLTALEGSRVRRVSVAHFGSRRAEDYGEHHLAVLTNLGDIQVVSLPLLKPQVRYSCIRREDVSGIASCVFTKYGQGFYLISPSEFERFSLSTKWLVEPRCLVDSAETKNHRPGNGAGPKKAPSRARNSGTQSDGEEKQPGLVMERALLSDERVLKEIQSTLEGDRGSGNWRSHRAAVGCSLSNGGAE
Description: pull-down.

This note sets out measurements from paper PMC5336186 (Nature cell biology, 2017).

B1: recombinant BCAR3 (natural protein, UniProt O75815 1-825, looked up)
chain: MAAGKFASLPRNMPVNHQFPLASSMDLLSSRSPLAEHRPDAYQDVSIHGTLPRKKKGPPPIRSCDDFSHMGTLPHSKSPRQNSPVTQDGIQESPWQDRHGETFTFRDPHLLDPTVEYVKFSKERHIMDRTPEKLKKELEEELLLSSEDLRSHAWYHGRIPRQVSENLVQRDGDFLVRDSLSSPGNFVLTCQWKNLAQHFKINRTVLRLSEAYSRVQYQFEMESFDSIPGLVRCYVGNRRPISQQSGAIIFQPINRTVPLRCLEEHYGTSPGQAREGSLTKGRPDVAKRLSLTMGGVQAREQNLPRGNLLRNKEKSGSQPACLDHMQDRRALSLKAHQSESYLPIGCKLPPQSSGVDTSPCPNSPVFRTGSEPALSPAVVRRVSSDARAGEALRGSDSQLCPKPPPKPCKVPFLKVPSSPSAWLNSEANYCELNPAFATGCGRGAKLPSCAQGSHTELLTAKQNEAPGPRNSGVNYLILDDDDRERPWEPAAAQMEKGQWDKGEFVTPLLETVSSFRPNEFESKFLPPENKPLETAMLKRAKELFTNNDPKVIAQHVLSMDCRVARILGVSEEMRRNMGVSSGLELITLPHGHQLRLDIIERHNTMAIGIAVDILGCTGTLEDRAATLSKIIQVAVELKDSMGDLYSFSALMKALEMPQITRLEKTWTALRHQYTQTAILYEKQLKPFSKLLHEGRESTCVPPNNVSVPLLMPLVTLMERQAVTFEGTDMWEKNDQSCEIMLNHLATARFMAEAADSYRMNAERILAGFQPDEEMNEICKTEFQMRLLWGSKGAQVNQTERYEKFNQILTALSRKLEPPPVKQAEL
For the molecule B1, the binding result in assay [1] and in assay [2] was “binds” in each case.
